Data as given in patent US20260116920A1 (PEPTIDREAM, published 2026).
Starred links: 1 amine or outer side, 2 acyl side, 3 side chain; linkers in the order of their positions; H or OH if unused. Positions of bridges follow the written chain, without caps; N, C: chain ends. Non-standard residues stand in square brackets, D forms with d. Primed or numbered codes have the meaning given here. No end group written: not given here. *: point of attachment. MePEG4c″ = K(MePEG4c) = (S)-20-amino-14-oxo-2,5,8,11-tetraoxa-15-azahenicosane-21-oic acid (Lys side chain acylated with methoxy-PEG4 acid), COCCOCCOCCOCCC(=O)*; E(PEG8Me) = (S)-30-amino-27-oxo-2,5,8,11,14,17,20,23-octaoxa-26-azahentriacontane-31-oic acid, COCCOCCOCCOCCOCCOCCOCCOCCNC(=O)CC[C@H](N[*:1])C(=O)[*:2]; Phe(4-OMe)(3) = (S)-2-amino-3-(4-methoxyphenyl)propanoic acid (source code F4OMe), COc1ccc(C[C@H](N[*:1])C(=O)[*:2])cc1; F4aao = (S)-2-amino-3-(4-(carboxymethoxy)phenyl)propanoic acid, O=C([C@H](Cc1ccc(OCC(=O)[*:3])cc1)N[*:1])[*:2]; Phe(4-OMe)″ = (S)-2-amino-3-(4-methoxyphenyl)propanoic acid (F4OMe), COc1ccc(C[C@H](N[*:1])C(=O)[*:2])cc1; Phe(4-OMe) = F4OMe = (S)-2-amino-3-(4-methoxyphenyl)propanoic acid, COc1ccc(C[C@H](N[*:1])C(=O)[*:2])cc1; Trp(1-CH2CO) = O=C([C@H](Cc1cn(CC(=O)[*:3])c2ccccc12)N[*:1])[*:2]; Phe(3-COOH) = N[C@@H](Cc1cccc(C(=O)O)c1)C(=O)O; NMePhe(3-Cl) = CN[C@@H](Cc1cccc(Cl)c1)C(=O)O; NMePhe(4-F) = CN[C@@H](Cc1ccc(F)cc1)C(=O)O; 3Pal(6-NH2) = Nc1ccc(C[C@H](N)C(=O)O)cn1; NMeW = CN[C@@H](Cc1c[nH]c2ccccc12)C(=O)O; NMe3Pal = CN[C@@H](Cc1cccnc1)C(=O)O; NMe4Pal = CN[C@@H](Cc1ccncc1)C(=O)O; NMeY = CN[C@@H](Cc1ccc(O)cc1)C(=O)O; NMeR = CN[C@@H](CCCNC(=N)N)C(=O)O; NMeF = CN[C@@H](Cc1ccccc1)C(=O)O; 3Pal = N[C@@H](Cc1cccnc1)C(=O)O; 4Pal = N[C@@H](Cc1ccncc1)C(=O)O; NMeA = CN[C@@H](C)C(=O)O

These binders were tested against T1, human transferrin receptor (hTfR) (human, UniProt P02786 89-760) (assay: SPR; B = KD 1-100 nM).
T1 construct: used as 0.5 uM hTfR dimer solution, immobilised on an NTA sensor chip (Ni capture plus EDC/NHS coupling); also called human TfR; TfR1
Description: NTA sensor chip (Global Life Sciences Technologies Japan K.K.) was inserted into BiacoreT200 (Global Life Sciences Technologies Japan K.K.), then the priming operation was performed three times by using running buffer containing: 10 mM HEPES pH 8.0 (Nacalai Tesque, Inc.), 150 mM NaCl (Nacalai Tesque, Inc.), 0.05% Tween 20 (Nacalai Tesque, Inc.), 0.1% BSA (SIGMA-ALDRICH) and 1.0% DMSO (FUJIFILM Wako Pure Chemical Corporation), and equilibrated at a flow rate of 30 μL/min. 350 mM EDTA solution was reacted at a flow rate of 10 μL/min for 60 seconds, 0.5 mM […] solution (Kishida Chemical Co., Ltd.) was reacted at a flow rate of 10 μL/min for 60 seconds, and then the NTA sensor chip was washed with 3 mM EDTA solution (Nacalai Tesque, Inc.) at a flow rate of 10 μL/min for 60 seconds. After mixing 50 μL each of 60 mM EDC solution (Global Life Science Technologies Japan K.K.) and 650 mM NHS solution (Global Life Science Technologies Japan K.K.), the reaction was carried out at a flow rate of 10 μL/min for 420 seconds. 150 μL of 0.5 μM hTfR dimer solution was prepared by dilution with running buffer and reacted at a flow rate of 10 μL/min for 300 seconds to immobilize hTfR on the NTA sensor chip. For the human transferrin receptor (hTfR), recombinant hTfR described in Example 2 of WO2018/124121 was used. After immobilization, capping was performed by reacting with 1.0 M ethanolamine solution (Global Life Sciences Technologies Japan K.K.) at a flow rate of 10 μL/min for 420 seconds. Peptide lysate prepared in DMSO solution to 10 mM was diluted with running buffer to be a final concentration of 10 μM peptide lysate, then peptide solutions of 100 nM, 50 nM, 25 nM, 10 nM, and 5 nM were prepared. Using the above samples, the kinetics of the peptide against hTfR was obtained by SPR measurement.
The kinetic evaluation model was single-cycle kinetics, and curve fitting was performed using Biacore T200 Evaluation Software Version 3.0 (Global Life Science Technologies Japan K.K.). The binding of the peptide to hTfR was evaluated by performing curve fitting on the obtained sensorgram by least squares method and obtaining the KD value.

T1 sequence (P02786 89-760 limits assumed): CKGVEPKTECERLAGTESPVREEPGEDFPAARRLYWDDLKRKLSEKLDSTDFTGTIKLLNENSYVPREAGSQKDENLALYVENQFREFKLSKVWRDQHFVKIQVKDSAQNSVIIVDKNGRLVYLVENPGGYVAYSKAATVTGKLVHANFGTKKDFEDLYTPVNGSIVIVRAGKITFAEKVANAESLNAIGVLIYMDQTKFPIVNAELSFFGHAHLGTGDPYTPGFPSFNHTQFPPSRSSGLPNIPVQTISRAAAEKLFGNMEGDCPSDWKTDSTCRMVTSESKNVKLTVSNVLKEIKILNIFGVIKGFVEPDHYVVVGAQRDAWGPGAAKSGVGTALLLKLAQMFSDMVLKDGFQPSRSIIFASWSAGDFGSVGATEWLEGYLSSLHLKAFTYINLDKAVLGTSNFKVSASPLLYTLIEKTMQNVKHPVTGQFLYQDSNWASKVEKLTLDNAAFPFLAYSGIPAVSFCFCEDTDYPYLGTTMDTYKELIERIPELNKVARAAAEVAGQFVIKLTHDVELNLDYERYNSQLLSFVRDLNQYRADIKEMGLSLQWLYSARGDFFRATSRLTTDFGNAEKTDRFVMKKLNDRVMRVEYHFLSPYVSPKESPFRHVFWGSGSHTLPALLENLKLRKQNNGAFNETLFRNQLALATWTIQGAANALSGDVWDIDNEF

KD	Binder
1 to 100 nM	{CH2CO}-AV[NMePhe(4-F)]V[NMeW]NYYIIK(MePEG4c″)[dR]FYC-NH2 (thioether N-15; not fully specified (residue 14)) [894_0269]
1 to 100 nM	{CH2CO}-AV[NMePhe(3-Cl)]VWNY[4Pal]IIRRF[NMeY]C-NH2 (thioether N-15; also: linker PEG4c) [894_0319]
1 to 100 nM	{CH2CO}-AV[NMeF]VWNYYII[NMeR]RFYC-NH2 (thioether N-15; not fully specified (residue 14); also: linker PEG4c) [894_0284, listing 1 of 2 here]
1 to 100 nM	Ac-AV[NMe3Pal]VWN[3Pal(6-NH2)][Phe(4-OMe)(3)]IIRRF[NMeY]C (thioether (positions not given here); not fully specified (C-terminus, bridges)) [894_0322]
1 to 100 nM	{CH2CO}-AV[NMePhe(3-Cl)]V[Trp(1-CH2CO)]N[3Pal(6-NH2)][Phe(4-OMe)″]IIRR[4Pal][NMeY]C (thioether N-15; not fully specified (C-terminus)) [894_0308]
1 to 100 nM	{CH2CO}-AV[NMePhe(4-F)]V[NMeW]NYYII[NMeR]K(MePEG4c″)FYC-NH2 (thioether N-15; not fully specified (residue 14)) [894_0271]
1 to 100 nM	{CH2CO}-AV[NMePhe(3-Cl)]VWNY[3Pal]IIRR[4Pal][NMeY]C (thioether N-15; not fully specified (C-terminus)) [894_0309]
1 to 100 nM	{CH2CO}-AV[NMeF]VWNYYIIR[dR]FYC-NH2 (thioether N-15; not fully specified (residue 14); also: linker PEG4c) [894_0282, listing 1 of 2 here]
1 to 100 nM	{CH2CO}-AV[NMePhe(3-Cl)]V[Trp(1-CH2CO)]NY[F4aao]IIRQF[NMeY]C (thioether N-15; not fully specified (C-terminus)) [894_0303]
1 to 100 nM	{CH2CO}-AV[NMe4Pal]VWNY[Phe(4-OMe)″]IIRRF[NMeY]C-NH2 (thioether N-15; also: linker PEG4c) [894_0314]
1 to 100 nM	{CH2CO}-AV[NMe3Pal]VWNY[Phe(4-OMe)″]IIRR[4Pal][NMeY]C-NH2 (thioether N-15; also: linker PEG4c) [894_0316]
1 to 100 nM	{CH2CO}-AV[NMePhe(3-Cl)]V[Trp(1-CH2CO)]NY[3Pal]IIRR[4Pal][NMeY]C (thioether N-15; not fully specified (C-terminus)) [894_0306]
1 to 100 nM	{CH2CO}-AV[NMePhe(3-Cl)]VWNY[4Pal]IIRR[4Pal][NMeY]C-NH2 (thioether N-15; also: linker PEG4c) [894_0312]
1 to 100 nM	{CH2CO}-AV[NMePhe(3-Cl)]V[Trp(1-CH2CO)]NY[F4aao]II[E(PEG8Me)]R[Phe(3-COOH)][NMeY]C (thioether N-15; not fully specified (C-terminus)) [894_0301]
1 to 100 nM	{CH2CO}-AV[NMe3Pal]VWNY[Phe(4-OMe)″]IIRRF[NMeY]C-NH2 (thioether N-15; also: linker PEG4c) [894_0313]
1 to 100 nM	{CH2CO}-AV[NMePhe(3-Cl)]V[Trp(1-CH2CO)]N[3Pal(6-NH2)][3Pal]IIRR[4Pal][NMeY]C (thioether N-15; not fully specified (C-terminus)) [894_0307]

KD	Binder
1 to 100 nM	{CH2CO}-AV[NMePhe(3-Cl)]VWN[3Pal(6-NH2)][Phe(4-OMe)″]IIRR[4Pal][NMeY]C-NH2 (thioether N-15; also: linker PEG4c) [894_0311]
1 to 100 nM	{CH2CO}-AV[NMePhe(4-F)]V[NMeW]NY[Phe(4-OMe)]IIK(MePEG4c″)[dR]FYC-NH2 (thioether N-15; not fully specified (residue 14)) [894_0270]
1 to 100 nM	{CH2CO}-AV[NMePhe(3-Cl)]VWN[3Pal(6-NH2)][3Pal]IIRR[4Pal][NMeY]C-NH2 (thioether N-15; also: linker PEG4c) [894_0310]
1 to 100 nM	{CH2CO}-AV[NMePhe(3-Cl)]V[Trp(1-CH2CO)]NY[F4aao]IIQRF[NMeY]C (thioether N-15; not fully specified (C-terminus)) [894_0302]
1 to 100 nM	{CH2CO}-AV[NMeF]VWNYYII[NMeR]RFYC-NH2 (thioether N-15; not fully specified (residue 14); also: linker PEG4c) [894_0284, listing 2 of 2 here]
1 to 100 nM	{CH2CO}-AV[NMePhe(3-Cl)]VWN[3Pal(6-NH2)][4Pal]IIRR[4Pal][NMeY]C-NH2 (thioether N-15; also: linker PEG4c) [894_0320]
1 to 100 nM	{CH2CO}-AV[NMeF]V[Trp(1-CH2CO)]NY[F4aao]IIRRYYC-NH2 (thioether N-15; not fully specified (residue 14); also: linker PEG4c) [894_0297]
1 to 100 nM	{CH2CO}-AV[NMePhe(3-Cl)]V[Trp(1-CH2CO)]NY[F4aao]II[E(PEG8Me)]RF[NMeY]C (thioether N-15; not fully specified (C-terminus)) [894_0298]
1 to 100 nM	{CH2CO}-AV[NMeF]VWNYYIIR[dR]FYC-NH2 (thioether N-15; not fully specified (residue 14); also: linker PEG4c) [894_0282, listing 2 of 2 here]
1 to 100 nM	{CH2CO}-AV[NMePhe(3-Cl)]VWNY[3Pal]IIRRF[NMeY]C (thioether N-15; not fully specified (C-terminus)) [894_0318]
1 to 100 nM	{CH2CO}-AV[NMeF]VWNY[F4aao]IIRRYYC-NH2 (thioether N-15; not fully specified (residue 14); also: linker PEG4c) [894_0296]
1 to 100 nM	{CH2CO}-AV[NMePhe(4-F)]V[NMeW]NY[Phe(4-OMe)]II[NMeR]K(MePEG4c″)FYC-NH2 (thioether N-15; not fully specified (residue 14)) [894_0272]
1 to 100 nM	{CH2CO}-AV[NMePhe(3-Cl)]V[Trp(1-CH2CO)]NY[F4aao]IIR[E(PEG8Me)]F[NMeY]C (thioether N-15; not fully specified (C-terminus)) [894_0299]
1 to 100 nM	{CH2CO}-[NMeA]V[NMePhe(3-Cl)]V[NMeW]NY[Phe(4-OMe)]IIR[dA]FYC-NH2 (thioether N-15; not fully specified (residue 14); also: linker PEG4c) [894_0287]
1 to 100 nM	{CH2CO}-AV[NMePhe(3-Cl)]VWN[3Pal(6-NH2)][Phe(4-OMe)″]IIRRF[NMeY]C-NH2 (thioether N-15; also: linker PEG4c) [894_0315]
